Measured values: article PMC4150770

Assays:
[1] = molecular target: 43S·mRNA preinitiation complex assembled with eIF5-G31R,G62S (yeast) (UniProt P32911); assay: fluorescence polarisation; dissociation kinetics by fluorescence anisotropy, 43S·mRNA(AUG) complexes: 15 nM eIF1A-Fl, 1 μM eIF1, 1 μM eIF5 variant, 120 nM 40S, 10 μM mRNA(AUG), 300 nM eIF2, 150 nM Met-tRNAi, 1 mM GDPNP·Mg2+; chase with 15 μM unlabeled eIF1A; 30 mM HEPES pH 7.4, 100 mM potassium acetate, 3 mM Mg(OAc)2, 2 mM DTT; double exponential fit (k1 fast phase, open state; k2 slow phase, closed state)
[2] = molecular target: 43S·mRNA preinitiation complex assembled with eIF5-G31R,M18V (yeast) (UniProt P32911); assay: as above
[3] = molecular target: 43S·mRNA preinitiation complex assembled with eIF5-G31R (yeast) (UniProt P32911); assay: as above
[4] = molecular target: 43S·mRNA preinitiation complex assembled with eIF5-G62S (yeast) (UniProt P32911); assay: as above
[5] = molecular target: 43S·mRNA preinitiation complex assembled with eIF5-M18V (yeast) (UniProt P32911); assay: as above
[6] = molecular target: 43S·mRNA preinitiation complex assembled with WT eIF5 (40S subunits, eIF1, eIF5, eIF2·GDPNP·Met-tRNAi ternary complex, model mRNA) (yeast) (UniProt P32911); assay: as above
[7] = molecular target: 43S·mRNA preinitiation complex assembled with eIF5-G31R,G62S (yeast) (UniProt P32911); assay: fluorescence polarisation; dissociation kinetics by fluorescence anisotropy, 43S·mRNA(UUG) complexes: 15 nM eIF1A-Fl, 1 μM eIF1, 1 μM eIF5 variant, 120 nM 40S, 10 μM mRNA(UUG), 300 nM eIF2, 150 nM Met-tRNAi, 1 mM GDPNP·Mg2+; chase with 15 μM unlabeled eIF1A; 30 mM HEPES pH 7.4, 100 mM potassium acetate, 3 mM Mg(OAc)2, 2 mM DTT; double exponential fit (k1 fast phase, open state; k2 slow phase, closed state)
[8] = molecular target: 43S·mRNA preinitiation complex assembled with eIF5-G31R,M18V (yeast) (UniProt P32911); assay: as above
[9] = molecular target: 43S·mRNA preinitiation complex assembled with eIF5-G31R (yeast) (UniProt P32911); assay: as above
[10] = molecular target: 43S·mRNA preinitiation complex assembled with eIF5-G62S (yeast) (UniProt P32911); assay: as above
[11] = molecular target: 43S·mRNA preinitiation complex assembled with eIF5-M18V (yeast) (UniProt P32911); assay: as above
[12] = molecular target: 43S·mRNA preinitiation complex assembled with WT eIF5 (40S subunits, eIF1, eIF5, eIF2·GDPNP·Met-tRNAi ternary complex, model mRNA) (yeast) (UniProt P32911); assay: as above

eIF1A labeled at its C-terminus with fluorescein (from UniProt P38912 1-153) (natural protein)
k1 (dissociation rate constant, fast phase, open state) [1]: 0.018 s⁻¹ | k2 (dissociation rate constant, slow phase, closed state) [1]: 0.003 s⁻¹ | k1 (dissociation rate constant, fast phase, open state) [2]: 0.025 s⁻¹ | k2 (dissociation rate constant, slow phase, closed state) [2]: 0.002 s⁻¹ | k1 (dissociation rate constant, fast phase, open state) [3]: 0.016 s⁻¹ | k2 (dissociation rate constant, slow phase, closed state) [3]: 0.005 s⁻¹ | k1 (dissociation rate constant, fast phase, open state) [4]: 0.018 s⁻¹ | k2 (dissociation rate constant, slow phase, closed state) [4]: 0.003 s⁻¹ | k1 (dissociation rate constant, fast phase, open state) [5]: 0.003 s⁻¹ | k2 (dissociation rate constant, slow phase, closed state) [5]: 0.0003 s⁻¹ | k1 (dissociation rate constant, fast phase, open state) [6]: 0.007 s⁻¹ | k2 (dissociation rate constant, slow phase, closed state) [6]: 0.0004 s⁻¹ | k1 (dissociation rate constant, fast phase, open state) [7]: 0.026 s⁻¹ | k2 (dissociation rate constant, slow phase, closed state) [7]: 0.004 s⁻¹ | k1 (dissociation rate constant, fast phase, open state) [8]: 0.018 s⁻¹ | k2 (dissociation rate constant, slow phase, closed state) [8]: 0.0003 s⁻¹ | k1 (dissociation rate constant, fast phase, open state) [9]: 0.008 s⁻¹ | k2 (dissociation rate constant, slow phase, closed state) [9]: 0.0005 s⁻¹ | k1 (dissociation rate constant, fast phase, open state) [10]: 0.025 s⁻¹ | k2 (dissociation rate constant, slow phase, closed state) [10]: 0.002 s⁻¹ | k1 (dissociation rate constant, fast phase, open state) [11]: 0.011 s⁻¹ | k2 (dissociation rate constant, slow phase, closed state) [11]: 0.0012 s⁻¹ | k1 (dissociation rate constant, fast phase, open state) [12]: 0.011 s⁻¹ | k2 (dissociation rate constant, slow phase, closed state) [12]: 0.0011 s⁻¹
